Results on two substances are retold here after paper PMC9481563, “Structural insights into the pSer/pThr dependent regulation of the SHP2 tyrosine phosphatase in insulin and CD28 signaling” (Nature Communications, 2022).

The assay addresses PTP1B catalytic domain, inactive C215S mutant (1-229 as printed) (human) (UniProt P18031). The assay is described as follows: fluorescence polarisation; competitive titration: labelled CF-ppIRS1 and protein both fixed (50-80% saturation), unlabelled competitor peptide varied; triplicates; Kd from cubic fit.

Sequence of PTP1B catalytic domain, inactive C215S mutant (1-229 as printed) (human) (P18031 1-229 C215S): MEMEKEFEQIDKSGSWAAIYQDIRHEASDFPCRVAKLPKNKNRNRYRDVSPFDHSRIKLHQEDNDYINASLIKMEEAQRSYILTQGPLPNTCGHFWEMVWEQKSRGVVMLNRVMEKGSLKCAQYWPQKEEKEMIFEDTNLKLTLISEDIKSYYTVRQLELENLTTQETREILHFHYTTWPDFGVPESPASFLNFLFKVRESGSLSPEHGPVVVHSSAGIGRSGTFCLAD

In turn, “ppCD28, CD28 peptide dually phosphorylated (pY191 + pT195)” returned a fold increase of binding over p0CD28 of 2 fold.

The substance “ppIRS1, IRS1 peptide dually phosphorylated (pY632 + pS636)” gave a fold increase of binding over p0IRS1 of 19 fold.
